Measured values reported in patent US20150086555A1 (THERACLONE SCIENCES, published 2015).

B1: TCN-556 (5089_K12) (antibody, V domains shown)
VH: QVQLVQSGAEVKKPGASVKVSCKASGYTFIGYDMHWVRQAPGQGLEWMGWINAKRGGTNYAQKFQGRVTMTRDTSISTAYMELNSLRSDDTAVYYCARGVGSRTTIFGVLNPEFDYWGQGTLVTVSS
VL: QSALTQPPSASGSPGQSVTISCTGSSSDVGGYDYVSWYQQHPGKAPKLLIYEVTKRPSGVPDRFSGSKSGNTASLTVSGLQAEDEADYYCSSYAGNYNHVFGPGTKVTVL
B2: TCN-556 (5089_K12) (antibody, V domains shown)
VH: B1 VH
VL: B1 VL
B3: TCN-560 (5084_P10) (antibody, V domains shown)
VH: EVQLVESGGGLVQPGGSLRLSCAASGFIFRNYWMSWVRQAPGKGLEWVANIKQDGREKYYVDSLRGRVNISRDNAENSLYLHMNSLRVEDTAVYFCARARMVVVTGDGFDVWGHGTMVTVSS
VL: DIQMTQSPSSLSASVGDRVTITCRASQNIKRYFNWYQQKPGKAPKLLIYAASNLENGVPSRFSGSGSGTDFTLTISSLQPEDFATYYCQQSFSKSWTFGQGTNVDIK
B4: TCN-560 (5084_P10) (antibody, V domains shown)
VH: B3 VH
VL: B3 VL

Legend:
[1] = biological target: recombinant soluble homotrimeric HA, A/Vietnam/1203/04 H5N1 (Influenza A virus …); assay: microarray, transfection SN IgG, trimeric HA
[2] = biological target: recombinant soluble homotrimeric HA, A/California/4/09 H1N1 (Influenza A virus …); assay: microarray, transfection SN IgG, trimeric HA
[3] = biological target: recombinant soluble homotrimeric HA, A/Solomon Islands/3/06 H1N1 (Influenza A virus A/Solomon …); assay: microarray, transfection SN IgG, trimeric HA
[4] = biological target: recombinant soluble homotrimeric HA, A/Hong Kong/156/97 H5N1 (Influenza A virus A/Hong Kong/156/97 …); assay: microarray, transfection SN IgG, trimeric HA
[5] = biological target: recombinant soluble homotrimeric HA, A/duck/Yangzhou/02/05 H8N4 (Influenza A virus …); assay: microarray, transfection SN IgG, trimeric HA
[6] = biological target: recombinant soluble homotrimeric HA, A/South Carolina/1/18 H1N1 (Influenza A virus A/South Carolina/1/18 …); assay: microarray, transfection SN IgG, trimeric HA
[7] = biological target: recombinant soluble homotrimeric HA, A/swine/Ontario/01911-2/99 H4N6 (Influenza A virus …); assay: microarray, transfection SN IgG, trimeric HA
[8] = biological target: recombinant soluble homotrimeric HA, A/Indonesia/5/05 H5N1 (Influenza A virus …); assay: microarray, transfection SN IgG, trimeric HA
[9] = biological target: recombinant soluble homotrimeric HA, A/Anhui/1/05 H5N1 (Influenza A virus A/Anhui/1/2005(H5N1)); assay: microarray, transfection SN IgG, trimeric HA
[10] = biological target: recombinant soluble homotrimeric HA, A/Wisconsin/67/05 H3N2 (Influenza A virus …); assay: microarray, transfection SN IgG, trimeric HA
[11] = biological target: recombinant soluble homotrimeric HA, A/northern shoveler/California/HKWF115/07 H6N4 (Influenza A virus A/northern …); assay: microarray, transfection SN IgG, trimeric HA
[12] = biological target: recombinant soluble homotrimeric HA, A/Netherlands/219/03 H7N7 (Influenza A virus …); assay: microarray, transfection SN IgG, trimeric HA
[13] = biological target: recombinant soluble homotrimeric HA, A/chicken/Vietnam/NCVD-016/08 H5N1 (Influenza A virus …); assay: microarray, transfection SN IgG, trimeric HA
[14] = biological target: recombinant soluble homotrimeric HA, A/Egypt/3300-NAMRU3/08 H5N1 (Influenza A virus …); assay: microarray, transfection SN IgG, trimeric HA
[15] = biological target: recombinant soluble homotrimeric HA, A/Japan/305/57 H2N2 (Influenza A virus A/Japan/305/1957(H2N2)); assay: microarray, transfection SN IgG, trimeric HA
[16] = biological target: hemagglutinin on whole influenza A virions, A/Solomon Islands/3/06 H1N1 (Influenza A virus A/Solomon …); assay: cell-based or functional assay
[17] = biological target: hemagglutinin on whole influenza A virions, A/Wisconsin/67/05 H3N2 (Influenza A virus …); assay: cell-based or functional assay
[18] = biological target: hemagglutinin on live influenza A virus, A/California/4/09 H1N1 (Influenza A virus …); assay: cell-based or functional assay
[19] = biological target: recombinant soluble homotrimeric HA of A/swine/Ontario/01911-2/99 (H4N6) (Influenza A virus …); assay: HA microarray, BCC supernatant
[20] = biological target: recombinant soluble homotrimeric HA of A/Anhui/1/05 (H5N1) (Influenza A virus A/Anhui/1/2005(H5N1)); assay: HA microarray, BCC supernatant
[21] = biological target: recombinant soluble homotrimeric HA of A/Hong Kong/2108/03 (H9N2) (Influenza A virus A/HK/2108/2003(H9N2)); assay: HA microarray, BCC supernatant
[22] = biological target: recombinant soluble homotrimeric HA of A/Solomon Islands/3/06 (H1N1) (Influenza A virus A/Solomon …); assay: HA microarray, BCC supernatant
[23] = biological target: recombinant soluble homotrimeric HA of A/Wisconsin/67/05 (H3N2) (Influenza A virus …); assay: HA microarray, BCC supernatant
[24] = biological target: recombinant soluble homotrimeric HA of A/Vietnam/1203/04 (H5N1) (Influenza A virus …); assay: HA microarray, BCC supernatant
[25] = biological target: recombinant soluble homotrimeric HA of A/California/4/09 (H1N1) (Influenza A virus …); assay: HA microarray, BCC supernatant
[26] = biological target: recombinant soluble homotrimeric HA of A/northern shoveler/California/HKWF115/07 (H6) (Influenza A virus A/northern …); assay: HA microarray, BCC supernatant
[27] = biological target: recombinant soluble homotrimeric HA of A/Netherlands/219/03 (H7N7) (Influenza A virus …); assay: HA microarray, BCC supernatant
[28] = biological target: recombinant soluble homotrimeric HA of A/chicken/Vietnam/NCVD-016/08 (H5N1) (Influenza A virus …); assay: HA microarray, BCC supernatant
[29] = biological target: recombinant soluble homotrimeric HA of A/duck/Yangzhou/02/05 (H8N4) (Influenza A virus …); assay: HA microarray, BCC supernatant
[30] = biological target: recombinant soluble homotrimeric HA of A/Japan/305/57 (H2N2) (Influenza A virus A/Japan/305/1957(H2N2)); assay: HA microarray, BCC supernatant
[31] = biological target: recombinant soluble homotrimeric HA of A/Indonesia/5/05 (H5N1) (Influenza A virus …); assay: HA microarray, BCC supernatant

| Binder | Trimeric HA Binding: RLU [1] [RLU] | Trimeric HA Binding: RLU [2] [RLU] | Trimeric HA Binding: RLU [3] [RLU] | Trimeric HA Binding: RLU [4] [RLU] | Trimeric HA Binding: RLU [5] [RLU] | Trimeric HA Binding: RLU [6] [RLU] | Trimeric HA Binding: RLU [7] [RLU] | Trimeric HA Binding: RLU [8] [RLU] | Trimeric HA Binding: RLU [9] [RLU] | Trimeric HA Binding: RLU [10] [RLU] | Trimeric HA Binding: RLU [11] [RLU] | Trimeric HA Binding: RLU [12] [RLU] | Trimeric HA Binding: RLU [13] [RLU] | Trimeric HA Binding: RLU [14] [RLU] | Trimeric HA Binding: RLU [15] [RLU] | % Neutralization [16] [%] | % Neutralization [17] [%] | % Neutralization [18] [%] | Trimeric HA Binding: RLU [19] [RLU] | Trimeric HA Binding: RLU [20] [RLU] | other results |
| --- | --- | --- | --- | --- | --- | --- | --- | --- | --- | --- | --- | --- | --- | --- | --- | --- | --- | --- | --- | --- | --- |
| B1 | 17400 | 20900 | 23400 | 24600 | 22400 | 32700 | 19300 | 15200 | 13800 | 44700 | 34800 | 43600 | 22700 | 16600 | 22800 | 0 | 15 | 0 |  |  |  |
| B2 |  |  |  |  |  |  |  |  |  |  |  |  |  |  |  |  |  |  | 5600 | 3700 | Trimeric HA Binding: RLU [21]: 7410 RLU; Trimeric HA Binding: RLU [22]: 2850 RLU; Trimeric HA Binding: RLU [23]: 9320 RLU; Trimeric HA Binding: RLU [24]: 13800 RLU; Trimeric HA Binding: RLU [25]: 14600 RLU; Trimeric HA Binding: RLU [26]: 11900 RLU; Trimeric HA Binding: RLU [27]: 10600 RLU; Trimeric HA Binding: RLU [28]: 8800 RLU; Trimeric HA Binding: RLU [29]: 16900 RLU; Trimeric HA Binding: RLU [30]: 5610 RLU; Trimeric HA Binding: RLU [31]: 8450 RLU |
| B3 | 19500 | 31100 | 22400 | 29300 | 27900 | 30500 | 16800 | 17000 | 18600 | 55400 | 35900 | 32100 | 18200 | 18700 | 25900 | 0 | 4 | 0 |  |  |  |
| B4 |  |  |  |  |  |  |  |  |  |  |  |  |  |  |  |  |  |  | 41600 | 49100 | Trimeric HA Binding: RLU [21]: 49400 RLU; Trimeric HA Binding: RLU [22]: 38800 RLU; Trimeric HA Binding: RLU [23]: 49100 RLU; Trimeric HA Binding: RLU [24]: 44000 RLU; Trimeric HA Binding: RLU [25]: 49200 RLU; Trimeric HA Binding: RLU [26]: 42300 RLU; Trimeric HA Binding: RLU [27]: 48500 RLU; Trimeric HA Binding: RLU [28]: 46000 RLU; Trimeric HA Binding: RLU [29]: 44700 RLU; Trimeric HA Binding: RLU [30]: 46700 RLU; Trimeric HA Binding: RLU [31]: 35900 RLU |
